The text below walks through data of article PMC3281039, “Tetrahydrodipicolinate N-Succinyltransferase and Dihydrodipicolinate Synthase from Pseudomonas aeruginosa: Structure Analysis and Gene Deletion” (PLoS ONE, 2012).

Data set [1] has as its target Tetrahydrodipicolinate N-succinyltransferase (DapD, PA3666) from Pseudomonas aeruginosa (Pseudomonas aeruginosa PAO1). Put plainly: SEC; analytical size exclusion chromatography, Superdex-200 10/30, 25 mM Tris-HCl pH 8.0, 150 mM NaCl; calibrated with chymotrypsinogen-A, ovalbumin, albumin, catalase, ferritin. Background: In gel filtration, larger molecules generally elute earlier.

For data set [2] the target is unchanged. Put plainly: crystal structure; PaDapD, hanging drops, 19-20% PEG3350, 0.3-0.4 M succinate pH 6.2; tetragonal P4(1)2(1)2 (apo, CoA-succinate) and monoclinic P2(1) (apo, L-2AP, D-2AP) crystal forms.
Data set [3] concerns the target T1, tetrahydrodipicolinate N-succinyltransferase (DapD, PA3666) (Pseudomonas aeruginosa, UniProt G3XD76).
T1 sequence (G3XD76 1-344): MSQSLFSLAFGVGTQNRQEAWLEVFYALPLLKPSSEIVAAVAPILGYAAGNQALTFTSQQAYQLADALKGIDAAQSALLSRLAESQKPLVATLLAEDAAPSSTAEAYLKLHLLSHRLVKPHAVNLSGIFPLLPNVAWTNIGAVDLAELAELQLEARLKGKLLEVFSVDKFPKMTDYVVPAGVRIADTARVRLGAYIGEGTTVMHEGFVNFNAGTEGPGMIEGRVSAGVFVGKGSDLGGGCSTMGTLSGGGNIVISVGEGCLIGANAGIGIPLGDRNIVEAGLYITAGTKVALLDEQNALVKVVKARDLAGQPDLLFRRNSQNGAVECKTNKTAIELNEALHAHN
Kind of data set: crystal structure at […] Å with CoA; succinate from […] in the crystallization buffer. Set-up: recombinant DapD; model residues 1–245 and 251–343. The class given is binding.

Data set [4] has as its target T1, tetrahydrodipicolinate N-succinyltransferase (DapD, PA3666). Kind of data set: crystal structure at […] Å (soaking); IC50 in DTNB succinyltransferase assay. The class given is biochemical. Set-up: recombinant DapD with Gly-Ser-His at the N-terminus after thrombin cleavage; residues 330–344 not modeled.
The target is the same in data set [5]. Put plainly: crystal structure at […] Å (co-crystallization), with succinate. The class given is binding. Set-up: recombinant DapD; model residues 1–245 and 251–343.
Data set [6] deals with the molecule itself. Put plainly: SEC; analytical size exclusion chromatography, Superdex-200 10/30, 25 mM Tris-HCl pH 8.0, 150 mM NaCl; calibrated with chymotrypsinogen-A, ovalbumin, albumin, catalase, ferritin.
Substrate in data set [7]: N[C@@H](CCCCC(=O)O)C(=O)O
Kind of data set: purified protein. In kind it is biochemical, Pseudomonas aeruginosa. Particulars: active site groove between two subunits of the homotrimer; two arginines (Arg181, Arg193), Asn209, Ala226, Glu221.

What is called stoichiometry N is a count of units in the complex or per binding partner. Consider “Tetrahydrodipicolinate N-succinyltransferase (DapD, PA3666) from Pseudomonas aeruginosa (enzyme)”, for which the stoichiometry N in data set [1] and in data set [2] was 3 in each case.

As for `O=C(O)CCC(=O)O` [succinate], the “crystal structure at 2.40 Å with CoA; succinate from 0.4 M in the crystallizatio” value in data set [3] was “contains a succinate molecule bound next to the acceptor arm of the CoA in the active site cleft”.

Usually IC50 stands for the midpoint of a concentration-inhibition curve. `N[C@H](CCCCC(=O)O)C(=O)O` [D-2AP, D-2-aminopimelate]: the IC50 in data set [4] was more than 20 mM.

Regarding `CC(C)(COP(=O)(O)OP(=O)(O)OC[C@H]1O[C@@H](n2cnc3c(N)ncnc32)[C@H](O)[C@@H]1OP(=O)(O)O)[C@@H](O)C(=O)NCCC(=O)NCCS` [CoA, coenzyme A], the “crystal structure at 2.40 Å (co-crystallization), with succinate” value in data set [5] is recorded as “Coenzyme A is bound in this narrow cleft formed at the interface of two adjacent subunits”.

B1: Dihydrodipicolinate synthase (DapA, PA1010) from Pseudomonas aeruginosa (enzyme, Pseudomonas aeruginosa PAO1)
chain: MIAGSMVALVTPFDAQGRLDWDSLAKLVDFHLQEGTNAIVAVGTTGESATLDVEEHIQVIRRVVDQVKGRIPVIAGTGANSTREAVALTEAAKSGGADACLLVTPYYNKPTQEGMYQHFRHIAEAVAIPQILYNVPGRTSCDMLPETVERLSKVPNIIGIKEATGDLQRAKEVIERVGKDFLVYSGDDATAVELMLLGGKGNISVTANVAPRAMSDLCAAAMRGDAAAARAINDRLMPLHKALFIESNPIPVKWALHEMGLIPEGIRLPLTWLSPRCHEPLRQAMRQTGVLA
notes: Dihydrodipicolinate synthase DapA, locus PA1010, Pseudomonas aeruginosa PAO1; the gene coding for DapA was cloned in pNIC28Bsa4 by LIC; the final model holds residues 1-291 (chain A) and 2-291 (chains B, C, D); N-terminal His6 tag with TEV site from vector pNIC28Bsa4 (GenBank EF198106); also called PaDapA; source: E. coli BL21(DE3), purified (Ni-NTA, Sephadex G-25 desalting); not shown: His6, …
For B1, in data set [6], the “stoichiometry N” value came out at 2.

B2: tetrahydrodipicolinate N-succinyltransferase (DapD, PA3666) (Pseudomonas aeruginosa PAO1) (protein)
chain: T1 sequence (G3XD76 1-344)
notes: recombinant DapD with Gly-Ser-His at the N-terminus after thrombin cleavage; residues 330–344 not modeled
Broadly, the Km is the concentration of substrate that gives half-maximal velocity. Consider B2, for which, in data set [7], the Km amounted to 7.0 mM.
